Experimental data from patent publication US20240374746A1, “SIRP-ALPHA ANTIBODIES AND CONJUGATES” (Tallac Therapeutics, Inc., priority 2021, published 2024).

How the values were obtained:
[1] = tested on: RENCA renal carcinoma cells; test: RENCA syngeneic tumor model, mIgG2a versus mIgG1 Fc conjugates; type: in vivo, mouse; details: BALB/c mice, 10 mg/kg i.p., 3 doses every 3 days, compared to conjugate with the mIgG1 Fc domain
Description: Experiments using anti-SIRP-α antibody-CpG oligonucleotide conjugate used the mouse CpG oligo 4523 (SEQ ID NO: 121) conjugated to anti-SIRP-α antibody comprising a heavy chain comprising the sequence of […] (SEQ ID NO:90) for mIgG2a or […] (SEQ ID NO:91) for mIgG1 and a light chain comprising the sequence of […] (SEQ ID NO:111). The sequence of the 4523 murine CpG oligonucleotide is tucgtcgtgacgtt-c3, where lower case indicates phosphothioate linkages, bold indicates iodo-uridine, and underlining indicates phosphotriester linker (SEQ ID NO:121). RENCA renal carcinoma cells (ATCC) were cultured in Complete RPMI 1640 (RPMI 1640+10% FBS (Gibco)) at 37° C. and 5% CO2. Cells were detached with Trypsin 0.25% (Gibco) and washed twice with RPMI 1640 (Gibco). Cells were resuspended at 20E6/mL in RPMI 1640 and kept on ice until use. 100 uL of suspended cells were subcutaneously implanted into the right flank of 6-week-old female BALB/c mice (Charles River). Tumor size was measured and recorded twice a week with calipers starting 9 days post implantation until duration of the study, approximately 35 days later. Tumor volume was calculated using the following formula: (length×width×width)/2. Once tumors reached on average 75 mm^3, […], mice were randomized by tumor size and treatments were initiated. […]

[2] = tested on: MC38 overexpressing mouse SIRPα and parental MC38 colon carcinoma cells; test: Mouse syngeneic MC38 model with SIRP-α-positive and SIRP-α-negative tumor cells; type: in vivo; details: 1 mg/kg i.p. twice, three days apart; MC38 overexpressing SIRP-α compared with parental MC38
Procedure: Parental MC38 colon carcinoma cells (ATCC) and MC38 overexpressing mouse SIRPα were cultured in Complete Dulbecco's Modified Eagle's Medium (Gibco) (DMEM, 10% FBS, 1% Pen/Strep, 1% Glutmax, 1% sodium pyruvate) at 37° C. and 5% CO2. Cells were detached with Trypsin 0.25% (Gibco) and washed twice with DMEM. Cells were resuspended at 20E6/mL in DMEM and kept on ice until use. 100 μL of suspended cells were subcutaneously implanted into the right flank of 6-week-old female C57/BL6 mice (Charles River). Tumor size was measured and recorded twice a week with calipers starting 4 days post implantation until duration of the study, approximately 17 days later. Tumor volume was calculated using the following formula: (length×width×width)/2. Once MC38 parental and MC38 SIRP-α tumors reached on average 94 mm^3 to 88 mm^3, respectively, approximately 4 days post implantation, mice were randomized by tumor size and treatments were initiated. The anti-SIRP-α mIgG1 conjugated to mTCpG (heavy chain comprising the sequence of SEQ ID NO:91 and light chain comprising the sequence of SEQ ID NO: 111, conjugated to mouse CpG oligo 4523 (SEQ ID NO: 121)) was administered intraperitoneally 2 doses every 3 days at 1 mg/kg.

[3] = tested on: RENCA renal carcinoma cells; test: RENCA mouse syngeneic tumor model refractory to PD-1; type: in vivo; details: 10 mg/kg i.p. three times, three days apart, single agent
Procedure: RENCA renal carcinoma cells line (ATCC) was cultured in Complete RPMI (RPMI, 10% FBS, 1× Pen/Strep, 1× Glutamax) at 37° C. and 5% CO2. Cells were detached with Trypsin 0.25% (Gibco) and washed twice with RPMI 1640 (Gibco). Cells were resuspended at 20E6/mL in RPMI 1640 and kept on ice until use. 100 μL of suspended cells were subcutaneously implanted into the right flank of 6-week-old female BALB/c mice (Charles River). Tumor size was measured and recorded twice a week with calipers starting 9 days post implantation until duration of the study, approximately 27 days later. Tumor volume was calculated using the following formula: (length×width×width)/2. Once tumors reached on average 56 mm^3, approximately 9 days post implantation, mice were randomized by tumor size and treatments were initiated. Anti-mSIRP-α conjugated to mT-CpG (heavy chain comprising the sequence of SEQ ID NO:91 and light chain comprising the sequence of SEQ ID NO:111, conjugated to mouse CpG oligo 4523 (SEQ ID NO:121)) was administered intraperitoneally 3 doses every 3 days at 10 mg/kg. In the anti-PD-1 RMP1-14 (BioXcell) treated cohort, dosing was initiated on day 10 post-tumor implantation once tumors reached on average 52 mm. A total of 3 doses 3 days apart at 10 mg/kg were administrated.

[4] = tested on: CT26 mouse colon carcinoma cells; test: CT26 mouse syngeneic tumor model, alone and in combination with anti-PD-1; type: in vivo
Procedure: CT26 mouse colon carcinoma cells (ATCC) were cultured in Complete RPMI (RPMI, 10% FBS, 1× Pen/Strep, 1× Glutamax) at 37° C. and 5% CO2. Once cells were 80% confluent, cells were detached with Trypsin 0.25% (Gibco) and washed twice with RPMI 1640 (Gibco). Cells were resuspended at 20E6/mL in RPMI 1640 and kept on ice until use. 100 μL of suspended cells were subcutaneously implanted into the right flank of 6 week old female BALB/c mice (Charles River). Tumor size was measured and recorded twice a week with calipers starting 7 days post implantation until duration of the study, approximately 27 days later. Tumor volume was estimated using the following formula: (length×width×width)/2. Once tumors reached 110 mm^3, approximately 9 days post implantation, mice were randomized by tumor size and treatments were initiated. Anti-mSIRP-α antibody-CpG oligonucleotide conjugate with a heavy chain comprising the sequence of SEQ ID NO:91 and a light chain comprising the sequence of SEQ ID NO: 111, conjugated to mouse CpG oligo 4523 (SEQ ID NO:121), […], 4 days apart, anti-PD-1 […] (BioXcell) at 10 mg/kg twice, 4 days apart as a single agent or in combination with anti-mSIRP-α antibody-CpG oligonucleotide conjugate for a total of two doses 4 days apart and anti-PD-1 twice, two days post anti-mSIRP-α antibody-CpG oligonucleotide conjugate.

[5] = tested on: B16-F10 melanoma cell line; test: B16F10 mouse syngeneic tumor model, combination with anti-PD-L1; type: in vivo; details: 30 mg/kg i.p. in combination with anti-PD-L1 antibody 10 mg/kg, compared to either alone
Procedure: B16-F10 melanoma cell line (ATCC) was cultured in Complete Dulbecco's Modified Eagle's Medium (DMEM, 10% FBS, 1% Pen/Strep, 1% Glutamax, 1% Sodium Pyruvate) at 37° C. and 5% CO2. Cells were detached with Trypsin 0.25% (Gibco) and washed twice with DMEM (Gibco). Cells were resuspended at 6E6/mL in DMEM and kept on ice until use. 100 μL of suspended cells were subcutaneously implanted into the right flank of 6-week-old female C57BL/6 mice (Charles River). Tumor size was measured and recorded 2-3 times a week with calipers starting 7 days post-implantation until duration of the study, approximately 17 days later. Tumor volume was calculated using the following formula: (length×width×width)/2. Once tumors reached on average 55 mm^3, approximately 7 days post-implantation, mice were randomized by tumor size and treatments were initiated. The conjugates were administered intraperitoneally 2 doses every 3 days at 30 mg/kg. Anti-PD-L1 was administered intraperitoneally 2 doses every 3 days at 10 mg/kg. […] The anti-mSIRP-α antibody conjugate comprised murine reactive mT-CpG oligonucleotide (SEQ ID NO: 121) conjugated to an anti-SIRP-α antibody comprising a heavy chain comprising the sequence of SEQ ID NO:91 and a light chain comprising the sequence of SEQ ID NO:111. […]

| Molecule | anti-tumor inhibition [1] | anti-tumor activity [2] | anti-tumor response [3] | tumor growth inhibition ([4]; 1 mg/kg i.p., single agent) | anti-tumor response ([4]; suboptimal dose 0.3 mg/kg in combination with anti-PD-1 antibody 10 mg/kg, compared to either alone) | anti-tumor response [5] |
| --- | --- | --- | --- | --- | --- | --- |
| conjugate with the mIgG2a Fc: anti-SIRP-α antibody, heavy chain SEQ ID NO:90 and light chain SEQ ID NO:111, conjugated to mouse CpG oligo 4523 (SEQ ID NO:121) (conjugate, antibody conjugated to CpG oligonucleotide; modified_base 2 OTHER; iodo-uridine; modified_base 1..5 OTHER; phosphorothioate linkages; misc_feature 5^6 phosphotriester linker; modified_base 6..14 OTHER; misc_feature 14 3' spacer C3) heavy: DVQLVESGGGVVRPGESLRLSCAASGFTFSSNAMSWVRQAPGKGLEWLAGISAGGSDTYYPASVKGRFTISRDNSKNTLYLQMNTLTAEDTAVYYCARETWNHLFDYWGLGTLVTVSSAKTTAPSVYPLAPVCGDTTGSSVTLGCLVKGYFPEPVTLTWNSGSLSSGVHTFPAVLQSDLYTLSSSVTVTSSTWPSQSITCNVAHPASSTKVDKKIEPRGPTIKPCPPCKCPAPNLLGGPSVFIFPPKIKDVLMISLSPIVTCVVVDVSEDDPDVQISWFVNNVEVHTAQTQTHREDYNSTLRVVSALPIQHQDWMSGKEFKCKVNNKDLPAPIERTISKPKGSVRAPQVYVLPPPEEEMTKKQVTLTCMVTDFMPEDIYVEWTNNGKTELNYKNTEPVLDSDGSYFMYSKLRVEKKNWVERNSYSCSVVHEGLHNHHTTKSFSRTPGRPQGFGPP light: ALTQPASVSANPGETVKIACSGGDYYSYYYGWYQQKAPGSALVTVIYSDDKRPSDIPSRFSGSASGSTATLTITGVRAEDEAVYYCGGYDYSTYANAFGAGTTLTVLGQPKSSPSVTLFPPSSEELETNKATLVCTITDFYPGVVTVDWKVDGTPVTQGMETTQPSKQSNNKYMASSYLTLTARAWERHSSYSCQVTHEGHTVEKSLSRADCS DNA: ttcgtcgtgacgtt | reduced anti-tumor inhibition | – | – | – | – | – |
| anti-mSIRP-α antibody conjugated with murine reactive mT-CpG: anti-SIRP-α mIgG1, heavy chain SEQ ID NO:91 and light chain SEQ ID NO:111, conjugated to mouse CpG oligo 4523 (SEQ ID NO:121) (conjugate, antibody conjugated to CpG oligonucleotide; modified_base 2 OTHER; iodo-uridine; modified_base 1..5 OTHER; phosphorothioate linkages; misc_feature 5^6 phosphotriester linker; modified_base 6..14 OTHER; misc_feature 14 3' spacer C3) heavy: DVQLVESGGGVVRPGESLRLSCAASGFTFSSNAMSWVRQAPGKGLEWLAGISAGGSDTYYPASVKGRFTISRDNSKNTLYLQMNTLTAEDTAVYYCARETWNHLFDYWGLGTLVTVSSAKTTPPSVYPLAPGSAAQTNSMVTLGCLVKGYFPEPVTVTWNSGSLSSGVHTFPAVLQSDLYTLSSSVTVPSSTWPSETVTCNVAHPASSTKVDKKIVPRDCGCKPCICTVPEVSSVFIFPPKPKDVLTITLTPKVTCVVVDISKDDPEVQFSWFVDDVEVHTAQTQPREEQFNSTFRSVSELPIMHQDWLNGKEFKCRVNSAAFPAPIEKTISKTKGRPKAPQVYTIPPPKEQMAKDKVSLTCMITDFFPEDITVEWQWNGQPAENYKNTQPIMDTDGSYFIYSKLNVQKSNWEAGNTFTCSVLHEGLHNHHTEKSLSHSPGRPQGFGPP light: ALTQPASVSANPGETVKIACSGGDYYSYYYGWYQQKAPGSALVTVIYSDDKRPSDIPSRFSGSASGSTATLTITGVRAEDEAVYYCGGYDYSTYANAFGAGTTLTVLGQPKSSPSVTLFPPSSEELETNKATLVCTITDFYPGVVTVDWKVDGTPVTQGMETTQPSKQSNNKYMASSYLTLTARAWERHSSYSCQVTHEGHTVEKSLSRADCS DNA: ttcgtcgtgacgtt | – | superior anti-tumor activity | potent, single-agent anti-tumor response | robust tumor growth inhibtion | enhanced anti-tumor response | enhanced anti-tumor response |
